These results are taken from publication PMC8575881, “Structure and activation mechanism of the hexameric plasma membrane H^+-ATPase” (Nature Communications, 2021).

Data set [1] concerns the molecule itself. The experiment in a line: SEC + native gel or EMSA; gel filtration of Pma1-ΔC22 by the protocol of wild-type Pma1; fractions 10-16 ml on native PAGE. (In general: A gel shift assay detects complexes by their altered migration in electrophoresis.)
Data set [2] deals with the molecule itself. The experiment in a line: SEC + native gel or EMSA; Superose 6 10/300 Increase in 20 mM HEPES pH 7.4, 150 mM NaCl, 0.003% LMNG, 0.0003% CHS, 1 mM MgCl2; native PAGE 4-20%, Tris-glycine pH 8.8.
Data set [3] deals with the molecule itself. The experiment in a line: SEC + native gel or EMSA; Superdex 200 10/300 in 20 mM HEPES pH 7.4, 150 mM NaCl; native gel electrophoresis.

As usually defined, the stoichiometry N is the number of molecules, sites or subunits per partner or assembly.

B1: Pma1-ΔC22, helix-i truncated Pma1 with a C-terminal FLAG tag (domain or fragment, S. cerevisiae, UniProt P05030 1-896, looked up)
chain: MTDTSSSSSSSSASSVSAHQPTQEKPAKTYDDAASESSDDDDIDALIEELQSNHGVDDEDSDNDGPVAAGEARPVPEEYLQTDPSYGLTSDEVLKRRKKYGLNQMADEKESLVVKFVMFFVGPIQFVMEAAAILAAGLSDWVDFGVICGLLMLNAGVGFVQEFQAGSIVDELKKTLANTAVVIRDGQLVEIPANEVVPGDILQLEDGTVIPTDGRIVTEDCFLQIDQSAITGESLAVDKHYGDQTFSSSTVKRGEGFMVVTATGDNTFVGRAAALVNKAAGGQGHFTEVLNGIGIILLVLVIATLLLVWTACFYRTNGIVRILRYTLGITIIGVPVGLPAVVTTTMAVGAAYLAKKQAIVQKLSAIESLAGVEILCSDKTGTLTKNKLSLHEPYTVEGVSPDDLMLTACLAASRKKKGLDAIDKAFLKSLKQYPKAKDALTKYKVLEFHPFDPVSKKVTAVVESPEGERIVCVKGAPLFVLKTVEEDHPIPEDVHENYENKVAELASRGFRALGVARKRGEGHWEILGVMPCMDPPRDDTAQTVSEARHLGLRVKMLTGDAVGIAKETCRQLGLGTNIYNAERLGLGGGGDMPGSELADFVENADGFAEVFPQHKYRVVEILQNRGYLVAMTGDGVNDAPSLKKADTGIAVEGATDAARSAADIVFLAPGLSAIIDALKTSRQIFHRMYSYVVYRIALSLHLEIFLGLWIAILDNSLDIDLIVFIAIFADVATLAIAYDNAPYSPKPVKWNLPRLWGMSIILGIVLAIGSWITLTTMFLPKGGIIQNFGAMNGIMFLQISLTENWLIFITRAAGPFWSSIPSWQLAGAVFAVDIIATMFTLFGWWSENWTDIVTVVRVWIWSIGIFCVLGGFYYEMSTSEAFDRLMNGKPMKEKKS
notes: Plasma membrane H+-ATPase Pma1, S. cerevisiae, lacking helix-i, the last 22 residues (T897-T918) of the 918-residue protein; also called Pma1-△C22; source: S. cerevisiae BY4742 transformed with the PRS423 vector; purified as wild-type Pma1 (anti-FLAG M2, gel filtration)
B1: the binding result in data set [1] was “binds”.

B2: S. cerevisiae plasma membrane H+-ATPase Pma1, full length, with a C-terminal triple FLAG epitope (enzyme, UniProt P05030 1-918, looked up)
chain: MTDTSSSSSSSSASSVSAHQPTQEKPAKTYDDAASESSDDDDIDALIEELQSNHGVDDEDSDNDGPVAAGEARPVPEEYLQTDPSYGLTSDEVLKRRKKYGLNQMADEKESLVVKFVMFFVGPIQFVMEAAAILAAGLSDWVDFGVICGLLMLNAGVGFVQEFQAGSIVDELKKTLANTAVVIRDGQLVEIPANEVVPGDILQLEDGTVIPTDGRIVTEDCFLQIDQSAITGESLAVDKHYGDQTFSSSTVKRGEGFMVVTATGDNTFVGRAAALVNKAAGGQGHFTEVLNGIGIILLVLVIATLLLVWTACFYRTNGIVRILRYTLGITIIGVPVGLPAVVTTTMAVGAAYLAKKQAIVQKLSAIESLAGVEILCSDKTGTLTKNKLSLHEPYTVEGVSPDDLMLTACLAASRKKKGLDAIDKAFLKSLKQYPKAKDALTKYKVLEFHPFDPVSKKVTAVVESPEGERIVCVKGAPLFVLKTVEEDHPIPEDVHENYENKVAELASRGFRALGVARKRGEGHWEILGVMPCMDPPRDDTAQTVSEARHLGLRVKMLTGDAVGIAKETCRQLGLGTNIYNAERLGLGGGGDMPGSELADFVENADGFAEVFPQHKYRVVEILQNRGYLVAMTGDGVNDAPSLKKADTGIAVEGATDAARSAADIVFLAPGLSAIIDALKTSRQIFHRMYSYVVYRIALSLHLEIFLGLWIAILDNSLDIDLIVFIAIFADVATLAIAYDNAPYSPKPVKWNLPRLWGMSIILGIVLAIGSWITLTTMFLPKGGIIQNFGAMNGIMFLQISLTENWLIFITRAAGPFWSSIPSWQLAGAVFAVDIIATMFTLFGWWSENWTDIVTVVRVWIWSIGIFCVLGGFYYEMSTSEAFDRLMNGKPMKEKKSTRSVEDFMAAMQRVSTQHEKET
notes: Plasma membrane H+-ATPase Pma1, S. cerevisiae, 918-residue protein, full length; Co-purified with endogenous lipids; residues 1-110 are disordered in the structures; The FLAG tag is not reported to be removed; also called Pma1-FL; wild-type Pma1; source: endogenous, tagged in the genome of yeast strain BY4742
For B2, in data set [2], the “stoichiometry N” value came to 6.

B3: SUMO-tagged helix-i (C-terminal 22 residues of Pma1) with an N-terminal 6xHis-SUMO tag and TEV site (domain or fragment, S. cerevisiae, UniProt P05030 897-918, looked up)
chain: TRSVEDFMAAMQRVSTQHEKET
notes: Pma1, S. cerevisiae, helix-i, the C-terminal 22 amino acids (T897-T918); A TEV protease cleavage site lies between the 6xHis-SUMO tag and the peptide; also called C-terminal helix-I peptide; C-tail helix-i; source: E. coli Rosetta (DE3), pET28a, purified (Ni-beads, Superdex 200 gel filtration); not shown: His6, N-terminal, kept; SUMO, N-terminal, kept
B3: the binding result in data set [3] is given as “binds”.
